Laboratory results taken from patent publication US20130209454A1.
Substitutions are numbered along the chain they refer to. Numbers in names are those of the source.

Tests used:
Test in all cases: cell-based or functional assay
[1] = biological target: HIV-1 strain Q259.d2.17 envelope (gp120) (HIV-1)
[2] = biological target: HIV-1 Env of strain ZM135M.PL10a (HIV-1)
[3] = biological target: HIV-1 strain ZM214M.PL15 envelope (gp120) (HIV-1)
[4] = biological target: HIV-1 strain Q842.d12 envelope (gp120) (HIV-1)
[5] = biological target: HIV-1 strain TRO.11 envelope (gp120) (HIV-1)
[6] = biological target: HIV-1 Env of strain Q769.d22 (HIV-1)
[7] = biological target: HIV-1 strain 3016.v5.c45 envelope (gp120) (HIV-1)
[8] = biological target: HIV-1 strain RHPA4259.7 envelope (gp120) (HIV-1)
[9] = biological target: HIV-1 strain 703357.C02 envelope (gp120) (HIV-1)
[10] = biological target: HIV-1 Env of strain ZM53M.PB12 (HIV-1)
[11] = biological target: HIV-1 strain T255-34 envelope (gp120) (HIV-1)
[12] = biological target: HIV-1 Env of strain 3718.v3.c11 (HIV-1)
[13] = biological target: HIV-1 Env of strain 6540.v4.cl (HIV-1)
[14] = biological target: HIV-1 Env of strain T250-4 (HIV-1)
[15] = biological target: HIV-1 Env of strain 620345.c01 (HIV-1)
[16] = biological target: HIV-1 Env of strain 6545.v4.cl (HIV-1)
[17] = biological target: HIV-1 strain 1054_07_TC4_1499 envelope (gp120) (HIV-1)
[18] = biological target: HIV-1 strain 3817.v2.c59 envelope (gp120) (HIV-1)
[19] = biological target: HIV-1 Env of strain Du156.12 (HIV-1)
[20] = biological target: HIV-1 Env of strain Q842.d12 (HIV-1)
[21] = biological target: HIV-1 Env of strain Ce703010054_2A2 (HIV-1)
[22] = biological target: HIV-1 Env of strain T251-18 (HIV-1)
[23] = biological target: HIV-1 strain CNE20 envelope (gp120) (HIV-1)
[24] = biological target: HIV-1 strain Ce2010_F5 envelope (gp120) (HIV-1)
[25] = biological target: HIV-1 strain X2131_C1_B5 envelope (gp120) (HIV-1)
[26] = biological target: HIV-1 Env of strain 3301.v1.c24 (HIV-1)
[27] = biological target: HIV-1 Env of strain 1056_10_TA11_1826 (HIV-1)
[28] = biological target: HIV-1 Env of strain X1254_c3 (HIV-1)
[29] = biological target: HIV-1 strain 6811.v7.c18 envelope (gp120) (HIV-1)
[30] = biological target: HIV-1 strain 231965.c01 envelope (gp120) (HIV-1)
[31] = biological target: HIV-1 Env of strain 928-28 (HIV-1)
[32] = biological target: HIV-1 strain ZM53M.PB12 envelope (gp120) (HIV-1)
[33] = biological target: HIV-1 Env of strain RHPA4259.7 (HIV-1)
[34] = biological target: HIV-1 strain WITO4160.33 envelope (gp120) (HIV-1)
[35] = biological target: HIV-1 strain T250-4 envelope (gp120) (HIV-1)
[36] = biological target: HIV-1 strain X1193_c1 envelope (gp120) (HIV-1)
[37] = biological target: HIV-1 strain 3718.v3.c11 envelope (gp120) (HIV-1)
[38] = biological target: HIV-1 Env of strain X2131_C1_B5 (HIV-1)
[39] = biological target: HIV-1 strain P1981_C5_3 envelope (gp120) (HIV-1)
[40] = biological target: HIV-1 strain Ce1176_A3 envelope (gp120) (HIV-1)
[41] = biological target: HIV-1 Env of strain Ce1176_A3 (HIV-1)
[42] = biological target: HIV-1 Env of strain 6535.3 (HIV-1)
[43] = biological target: HIV-1 strain Du156.12 envelope (gp120) (HIV-1)
[44] = biological target: HIV-1 Env of strain 0330.v4.c3 (HIV-1)
[45] = biological target: HIV-1 strain ZM109F.PB4 envelope (gp120) (HIV-1)
[46] = biological target: HIV-1 strain WEAU_d15_410_787 envelope (gp120) (HIV-1)
[47] = biological target: HIV-1 Env of strain Ce0682_E4 (HIV-1)
[48] = biological target: HIV-1 Env of strain 1006_11_C3_1601 (HIV-1)
[49] = biological target: HIV-1 strain ZM197M.PB7 envelope (gp120) (HIV-1)
[50] = biological target: HIV-1 Env of strain CAP210.2.00.E8 (HIV-1)

B1: NIH45-46^G54Y IgG (antibody, name in Kabat numbering, V domains shown)
VH: QVRLSQSGGQMKKPGESMRLSCRASGYEFLNCPINWIRLAPGRRPEWMGWLKPRYGAVNYARKFQGRVTMTRDVYSDTAFLELRSLTSDDTAVYFCTRGKYCTARDYYNWDFEHWGRGAPVTVSS
VL: EIVLTQSPATLSLSPGETAIISCRTSQSGSLAWYQQRPGQAPRLVIYSGSTRAAGIPDRFSGSRWGADYNLSISNLESGDFGVYYCQQYEFFGQGTKVQVDI
neutralization IC80 [1]: 0.034 µg/mL | neutralization IC50 [2]: 0.09 µg/mL | neutralization IC80 [3]: 0.23 µg/mL | neutralization IC80 [4]: 0.045 µg/mL | neutralization IC80 [5]: 0.22 µg/mL | neutralization IC50 [6]: 0.007 µg/mL | neutralization IC80 [7]: > 50 µg/mL | neutralization IC80 [8]: 0.02 µg/mL | neutralization IC80 [9]: 30.6 µg/mL | neutralization IC50 [10]: 0.06 µg/mL | neutralization IC80 [11]: 0.174 µg/mL | neutralization IC50 [12]: 0.3 µg/mL | neutralization IC50 [13]: > 50 µg/mL | neutralization IC50 [14]: > 50 µg/mL | neutralization IC50 [15]: > 50 µg/mL | neutralization IC50 [16]: > 50 µg/mL | neutralization IC80 [17]: 0.236 µg/mL | neutralization IC80 [18]: > 50 µg/mL | neutralization IC50 [19]: 0.007 µg/mL | neutralization IC50 [20]: 0.015 µg/mL | neutralization IC50 [21]: 0.022 µg/mL | neutralization IC50 [22]: 0.35 µg/mL | neutralization IC80 [23]: 2.4 µg/mL | neutralization IC80 [24]: 0.235 µg/mL | neutralization IC80 [25]: 0.39 µg/mL | neutralization IC50 [26]: 0.003 µg/mL | neutralization IC50 [27]: 0.044 µg/mL | neutralization IC50 [28]: 0.013 µg/mL | neutralization IC80 [29]: 0.059 µg/mL | neutralization IC80 [30]: 0.054 µg/mL | neutralization IC50 [31]: 0.12 µg/mL | neutralization IC80 [32]: 0.22 µg/mL | neutralization IC50 [33]: 0.007 µg/mL | neutralization IC80 [34]: 0.09 µg/mL | neutralization IC80 [35]: > 50 µg/mL | neutralization IC80 [36]: 0.024 µg/mL | neutralization IC80 [37]: 3.85 µg/mL | neutralization IC50 [38]: 0.1 µg/mL | neutralization IC80 [39]: 0.09 µg/mL | neutralization IC80 [40]: 0.58 µg/mL | neutralization IC50 [41]: 0.21 µg/mL | neutralization IC50 [42]: 0.08 µg/mL | neutralization IC80 [43]: 0.026 µg/mL | neutralization IC50 [44]: 0.03 µg/mL | neutralization IC80 [45]: 0.168 µg/mL | neutralization IC80 [46]: 0.008 µg/mL | neutralization IC50 [47]: 0.017 µg/mL | neutralization IC50 [48]: 0.005 µg/mL | neutralization IC80 [49]: 0.21 µg/mL

B2: NIH45-46^G54W (antibody, V domains shown)
VH: B1 VH with Y55W
VL: B1 VL
IC50, pseudovirus neutralization [2]: 0.04 µg/mL | IC50, pseudovirus neutralization [6]: 0.001 µg/mL | IC50, pseudovirus neutralization [10]: 0.04 µg/mL | IC50, pseudovirus neutralization [14]: 1.33 µg/mL | IC50, pseudovirus neutralization [15]: > 50 µg/mL | IC50, pseudovirus neutralization [19]: 0.001 µg/mL | IC50, pseudovirus neutralization [20]: 0.005 µg/mL | IC50, pseudovirus neutralization [21]: 0.027 µg/mL | IC50, pseudovirus neutralization [22]: 0.26 µg/mL | IC50, pseudovirus neutralization [26]: 0.001 µg/mL | IC50, pseudovirus neutralization [27]: 0.024 µg/mL | IC50, pseudovirus neutralization [28]: 0.002 µg/mL | IC50, pseudovirus neutralization [50]: > 50 µg/mL | IC50, pseudovirus neutralization [31]: 0.06 µg/mL | IC50, pseudovirus neutralization [33]: 0.001 µg/mL | IC50, pseudovirus neutralization [38]: 0.05 µg/mL | IC50, pseudovirus neutralization [41]: 0.16 µg/mL | IC50, pseudovirus neutralization [42]: 0.03 µg/mL | IC50, pseudovirus neutralization [47]: 0.01 µg/mL | IC50, pseudovirus neutralization [48]: 0.001 µg/mL

B3: NIH45-46^G54W(HC), S28Y(LC) (antibody, V domains shown)
VH: B1 VH with Y55W
VL: B1 VL with S28Y
IC50, pseudovirus neutralization [2]: 0.049 µg/mL | IC50, pseudovirus neutralization [6]: 0.003 µg/mL | IC50, pseudovirus neutralization [10]: 0.091 µg/mL | IC50, pseudovirus neutralization [14]: 1.55 µg/mL | IC50, pseudovirus neutralization [15]: > 50 µg/mL | IC50, pseudovirus neutralization [19]: 0.003 µg/mL | IC50, pseudovirus neutralization [20]: 0.001 µg/mL | IC50, pseudovirus neutralization [21]: 0.016 µg/mL | IC50, pseudovirus neutralization [22]: 0.336 µg/mL | IC50, pseudovirus neutralization [26]: 0.001 µg/mL | IC50, pseudovirus neutralization [27]: 0.057 µg/mL | IC50, pseudovirus neutralization [28]: 0.006 µg/mL | IC50, pseudovirus neutralization [50]: 1.95 µg/mL | IC50, pseudovirus neutralization [31]: 0.045 µg/mL | IC50, pseudovirus neutralization [33]: 0.001 µg/mL | IC50, pseudovirus neutralization [38]: 0.031 µg/mL | IC50, pseudovirus neutralization [41]: 0.172 µg/mL | IC50, pseudovirus neutralization [42]: 0.015 µg/mL | IC50, pseudovirus neutralization [47]: 0.007 µg/mL | IC50, pseudovirus neutralization [48]: 0.009 µg/mL

B4: NIH45-46^G54F IgG (antibody, name in Kabat numbering, V domains shown)
VH: B1 VH with Y55F
VL: B1 VL
neutralization IC80 [1]: 0.036 µg/mL | neutralization IC50 [2]: 0.13 µg/mL | neutralization IC80 [3]: 0.3 µg/mL | neutralization IC80 [4]: 0.039 µg/mL | neutralization IC80 [5]: 0.3 µg/mL | neutralization IC50 [6]: 0.005 µg/mL | neutralization IC80 [7]: 37 µg/mL | neutralization IC80 [8]: 0.02 µg/mL | neutralization IC80 [9]: > 50 µg/mL | neutralization IC50 [10]: 0.08 µg/mL | neutralization IC80 [11]: 0.198 µg/mL | neutralization IC50 [12]: 0.32 µg/mL | neutralization IC50 [13]: > 50 µg/mL | neutralization IC50 [14]: > 50 µg/mL | neutralization IC50 [15]: > 50 µg/mL | neutralization IC50 [16]: > 50 µg/mL | neutralization IC80 [17]: 0.283 µg/mL | neutralization IC80 [18]: > 50 µg/mL | neutralization IC50 [19]: < 0.001 µg/mL | neutralization IC50 [20]: 0.011 µg/mL | neutralization IC50 [21]: 0.02 µg/mL | neutralization IC50 [22]: 0.41 µg/mL | neutralization IC80 [23]: 3.91 µg/mL | neutralization IC80 [24]: 0.186 µg/mL | neutralization IC80 [25]: 0.41 µg/mL | neutralization IC50 [26]: 0.001 µg/mL | neutralization IC50 [27]: 0.064 µg/mL | neutralization IC50 [28]: 0.011 µg/mL | neutralization IC80 [29]: 0.063 µg/mL | neutralization IC80 [30]: 0.062 µg/mL | neutralization IC50 [31]: 0.11 µg/mL | neutralization IC80 [32]: 0.23 µg/mL | neutralization IC50 [33]: 0.005 µg/mL | neutralization IC80 [34]: 0.14 µg/mL | neutralization IC80 [35]: > 50 µg/mL | neutralization IC80 [36]: 0.026 µg/mL | neutralization IC80 [37]: 4.62 µg/mL | neutralization IC50 [38]: 0.1 µg/mL | neutralization IC80 [39]: 0.11 µg/mL | neutralization IC80 [40]: 0.83 µg/mL | neutralization IC50 [41]: 0.24 µg/mL | neutralization IC50 [42]: 0.07 µg/mL | neutralization IC80 [43]: 0.019 µg/mL | neutralization IC50 [44]: 0.04 µg/mL | neutralization IC80 [45]: 0.17 µg/mL | neutralization IC80 [46]: 0.004 µg/mL | neutralization IC50 [47]: 0.011 µg/mL | neutralization IC50 [48]: 0.003 µg/mL | neutralization IC80 [49]: 0.23 µg/mL
